Earlier results in US9867860B2, “Formulations for preventing and treating decreasing platelet cell counts” (priority 2013, dated 2018).

Tests used:
thrombocytopenia = details: Vitamin B12 and folate together, deficiency
[1] = tested on: refractory immune thrombocytopenia; details: two cases; high-dose vitamin D supplementation and hydroxychloroquine in combination
[2] = tested on: patients with ITP and liver disease; details: for side effects: human, in vivo
[3] = tested on: patients with solid tumors who had previously received platelet transfusion because of myelosuppression; details: randomized, placebo-controlled trial
[4] = tested on: thrombocytopenia associated with chemotherapy, HCV infection, or early liver cirrhosis

Vitamin B12
correction of thrombocytopenia on repletion (thrombocytopenia): rapidly corrects

CCN(CCO)CCCC(C)Nc1ccnc2cc(Cl)ccc12 (stereo not shown) [hydroxychloroquine, reference compound]
treatment outcome of refractory immune thrombocytopenia [1]: successfully treated

CC1=NN(c2ccc(C)c(C)c2)C(=O)/C1=N\Nc1cccc(-c2cccc(C(=O)O)c2)c1O [Eltrombopag]
side effects [2]: bone marrow fibrosis, thrombosis, and ocular toxicities

Romiplostim
side effects [2]: bone marrow fibrosis, thrombosis, and ocular toxicities
platelet count ([2]; patients with ITP and liver disease, continuous treatment): increase platelet count

vitamin D
treatment outcome of refractory immune thrombocytopenia [1]: successfully treated

B1: IL-11: recombinant human IL-11, cytokine stimulating megakaryocyte maturation (protein, UniProt P20809 22-199, looked up)
Interleukin-11: PGPPPGPPRVSPDPRAELDSTVLLTRSLLADTRQLAAQLRDKFPADGDHNLDSLPTLAMSAGALGALQLPGVLTRLRADLLSYLRHVQWLRRAGGSSLKTLEPELGTLQARLDRLLRRLQLLMSRLALPQPPPDPPAPPLAPPSSAWGGIRAAHAILGGLHLTLDWAVRGLLLLKTRL
reduction of the number of patients in need of platelet transfusions [3]: 26%
platelet counts, IL-11 group versus peanut skins extract group (myelosuppressed mice; d7): significantly higher
platelet counts versus control thrombocytopenia group (myelosuppressed mice; d7, subcutaneous): significantly improved
platelet counts (myelosuppressed mice; d10, subcutaneous): further improved
other side effects ([4]; human, in vivo): dyspnea, atrial arrhythmias, syncope, and fatigue
side effect: edema, share of patients ([4]; human, in vivo): more than 50 % of patients
correction of thrombocytopenia ([4]; thrombocytopenia associated with chemotherapy, HCV infection, or early liver cirrhosis, in some degree): could correct thrombocytopenia
